Experiment [1] deals with protein tyrosine phosphatase 1B (PTP1B). As to conditions: at 50 μM; ref [48]; cited from earlier work.
Experiment [2] concerns the target FITC-SgbA(leader) (Streptomyces globisporus subsp. globisporus NRRL B2293). Put plainly: fluorescence polarisation. On the technique in general: Polarisation of emitted light reports the rotation of a fluorescent probe.

With streptocollin, the “inhibition of PTP1B” value in experiment [1] is recorded as 33%. In the case of “His6-SgbL(kinase 208-548) (domain or fragment)”, the Kd (in general, the free concentration of one partner at which half of the binding sites on the other are occupied at equilibrium, for simple one-to-one binding) in experiment [2] was determined as 357 nM. Regarding “His6-SgbL(lyase-kinase 1-548) (domain or fragment)”, the Kd in experiment [2] worked out at 351 nM. The Kd values of the last two substances are within 1.5-fold of each other.

Values taken from article PMC5932250 (Journal of the American Chemical Society, 2018).
